{"source": "paper PMC3732525", "about": "(DNA repair, 2013)", "proteins": {"B1": {"name": "S. cerevisiae Dmc1 (ScDmc1), N-terminally (His)6-tagged (natural protein, UniProt P25453 1-334, looked up)", "chain": "MSVTGTEIDSDTAKNILSVDELQNYGINASDLQKLKSGGIYTVNTVLSTTRRHLCKIKGLSEVKVEKIKEAAGKIIQVGFIPATVQLDIRQRVYSLSTGSKQLDSILGGGIMTMSITEVFGEFRCGKTQMSHTLCVTTQLPREMGGGEGKVAYIDTEGTFRPERIKQIAEGYELDPESCLANVSYARALNSEHQMELVEQLGEELSSGDYRLIVVDSIMANFRVDYCGRGELSERQQKLNQHLFKLNRLAEEFNVAVFLTNQVQSDPGASALFASADGRKPIGGHVLAHASATRILLRKGRGDERVAKLQDSPDMPEKECVYVIGEKGITDSSD"}}, "biological_target": "the molecule itself", "assay": "SEC"}
{"protein": "B1", "values": [{"measurement": "binding result", "result": "binds"}]}
